Data set [1] has as its system CC(C)[C@H](NCC(=O)[C@@H](O)[C@H](O)[C@H](O)CO)C(=O)N[C@@H](Cc1cnc[nH]1)C(=O)O. The experiment in a line: purified protein, by the assay type. The conditions noted are these: other: substrate FVH; apparent Km; 4A.A/TODB/POD.
Protocol: (§4) Escherichia coli BL21 (DE3) transformed with pEPN (pET28a-PnFPOX) was grown aerobically at 37° C. in LB medium (7 L) containing 50 μg kanamycin ml^−1. After reaching an A660 nm value of 1.4, the cells were induced with 0.3 mM IPTG, and the incubation was continued at 25° C. until reaching an A660 nm value of 3.0. The cells were harvested by centrifugation and a quarter of harvested cells (approx. 10.5 g) were resuspended in 10 mM PPB, pH 7.0, and lysed by 2 passages through a French press (1,000 kg cm^−2). The lysate was centrifuged at 10,000 g at 4° C. for 20 min, and the supernatant was centrifuged at 40,000 rpm at 4° C. for 90 min. The supernatant was then dialyzed against 10 mM PPB, pH 8.0, containing 25 μM FAD.
(§5) Ammonium sulfate was added to the dialyzed supernatant to 35% saturation and then the precipitate formed was pelleted by centrifugation at 15,000 g for 20 min. The resultant precipitate was dissolved in 10 mM PPB, pH 8.0, containing 25 μM FAD and 1% mannose and dialyzed at 4° C. against the same buffer, and subsequently dialyzed against 10 mM PPB, pH 8.0, containing 25 μM FAD. The dialyzed enzyme solution was applied to a RESOURCE Q column (GE Healthcare) equilibrated with 10 mM PPB, pH 8.0. […] The active flow-through fractions were collected and dialyzed against 10 mM PPB, pH 7.0.
(§6) The dialyzed enzyme solution was applied to a HiLoad 16/60 Superdex 75 pg column (GE Healthcare) equilibrated with 10 mM PPB, pH 7.0. Gel filtration chromatography was carried out with the same buffer. The active fractions were collected, and the purified enzyme solution was dialyzed against 10 mM PPB, pH 7.0 containing 100 μM FAD, and stored at 4° C. The purity of the purified enzyme was confirmed by SDS-PAGE, and the protein concentration was measured using a DC Protein Assay Kit (Bio-Rad, CA, USA).
Data set [2] has as its system CC(C)[C@H](NCC(=O)[C@@H](O)[C@H](O)[C@H](O)CO)C(=O)O. The experiment in a line: purified protein, by the assay type. As to conditions: other: substrate FV; apparent Km; 4A.A/TODB/POD.
Protocol: as §4, §5, §6
The test system of data set [3] is fructosyl peptidyl oxidase FPOX-C (Coniochaeta sp. NISL 9330; GenBank: BAD00186.1). The conditions noted are these: cited from earlier work.
In data set [4] the test system is fructosyl peptidyl oxidase FPOX-E (Eupenicillum terrenum ATCC 18547; GenBank: BAD00185.1). The conditions noted are these: cited from earlier work.
Data set [5] can be described thus: Oxidase activity, 4AA/TODB/POD system, substrate FV. The format is biochemical. As to the method:
(§1) The water-soluble fraction was examined for the oxidase activity using a POD/TODB/4A.A. method with three substrates: fructosyl valine (FV), fructosyl lysine (FK), and fructosyl valyl histidine (FVH).
(§2) The oxidase activity was assayed using 4A.A/TODB/POD with varying concentrations of substrates, FV, FK and FVH. The absorbance at 546 nm was monitored. Typical Michaelis-Menten curves were obtained with FV and FVH, but not with FK. […] A high VmaxKm^−1 value for FV (42.8 U mg^−1 mM^−1) indicates high specificity toward FV of this enzyme. It should be noted that VmaxKm^−1 value for FVH is also considerable (14.7 U mg^−1 mM^−1, 34% of VmaxKm^−1 for FV). This activity toward FVH of PnFPOX will be beneficial in the enzyme-based measurement of HbA1c. For comparison, the oxidase activity of known fructosyl peptidyl oxidases (FPOX-C and FPOX-E) was also included in the table (Hirokawa et al. ibid).
(§3) The oxidase activity of the fructosyl peptidyl oxidases PnFPOX and FPOX-C on a fructosyl hexapeptide (F6P: Fru-Val-His-Leu-Thr-Pro-Glu) was assayed without addition of Proteinase N. The enzyme activity was measured in a 4AA/TODB/POD system as described in Example 2, with the substrate concentration of 1 mM for FV and FVH and 5 mM for F6P.

Data set [6] can be described thus: Oxidase activity, 4AA/TODB/POD system, substrate FK. It is filed as biochemical. As to conditions: water-soluble fraction; POD/TODB/4A.A. method; in words. As to the method:
as §1, §2

A short description of data set [7]: Oxidase activity, 4AA/TODB/POD system, substrate FVH. It is filed as biochemical. As to the method:
as §1, §2, §3

Data set [8] can be described thus: Oxidase activity toward fructosyl hexapeptide without Proteinase N, 4AA/TODB/POD system. It is filed as biochemical. On the procedure:
as §3

Data set [9] can be described thus: Thermostability: residual activity after heat treatment. The conditions noted are these: heat-treated at 50° C. for 10 minutes in 10 mM PPB (pH 7.0). It is filed as physicochemical. On the procedure:
Thermostability of PnFPOX was evaluated by incubating the purified enzyme solution in 10 mM PPB (pH 7.0) at various temperatures for 10 minutes and then measuring the residual activity. The activity of PnFPOX was maintained about 75% up to 50° C. […] (Hirokawa et al. ibid).

Setting [10] is: substrate concentration 1 mM, 4AA/TODB/POD.
[11] abbreviates: water-soluble fraction, POD/TODB/4A.A. method, in words.

Data on five molecules can be found in patent US8962271B2, “Fructosyl peptidyl oxidase” (Roche Diagnostics Operations, Inc., priority 2009, dated 2015).

Read-outs that look alike come from different tables or passages of the source.

The Km is the concentration of substrate that gives half-maximal velocity.

Consider “fructosyl peptidyl oxidase PnFPOX from Phaeosphaeria nodorum, SEQ ID NO:1 (recombinant, purified) (Parastagonospora nodorum SN15)”, for which, in data set [1], the Km amounted to 0.20 mM and the Vmax turned out to be 2.97 U/mg. Also, in data set [2], the Km is reported as 0.64 mM and the Vmax is on record as 27.6 U/mg.

Consider `CC(C)[C@H](NCC(=O)[C@@H](O)[C@H](O)[C@H](O)CO)C(=O)O` [FV, fructosyl valine], for which, in data set [3] (substrate FV), the Km is 0.824 mM and the Vmax is on record as 66.0 U/mg. Besides, in data set [4] (substrate FV), the Michaelis-Menten constant (Km) is 0.318 mM and the Vmax was 20.6 U/mg.

With `N[C@@H](CCCCNCC(=O)[C@@H](O)[C@H](O)[C@H](O)CO)C(=O)O` [FK, fructosyl lysine], in [3] (substrate FK), the Michaelis constant (Km) is 10.6 mM and the Vmax is given as 23.4 U/mg. In data set [4] (substrate FK), the Vmax is listed as 0.42 U/mg.

For `CC(C)[C@H](NCC(=O)[C@@H](O)[C@H](O)[C@H](O)CO)C(=O)N[C@@H](Cc1cnc[nH]1)C(=O)O` [FVH, fructosyl valyl histidine], in [3] (substrate FVH), the Km was 2.81 mM and the Vmax is listed as 23.8 U/mg. In [4] (substrate FVH), the Km was 2.76 mM and the Vmax is 5.43 U/mg.

B1: PnFPOX: fructosyl peptidyl oxidase derived from Phaeosphaeria nodorum, amino acid sequence SEQ ID NO:1, recombinant from E. coli (protein, listed as Phaeosphaeria nodorum)
chain: MAPSRANTSVIVVGGGGTIGSSTALHLVRSGYTPSNVTVLDAYPIPSSQSAGNDLNKIMGVSLRNPVDLQLALEARQMWNEDELFKKFFHNTGRLDCAHGEKDIADLKSGYQALVDAGLDATNEWLDSEDEILKRMPLLSRDQIKGWKAIFSKDGGWLAAAKAINAVGEYLRDQGVRFGFYGAGSFKAPLLAEGVCIGVETVDGTRYYADKVVLAAGAWSPTLVELHEQCVSKAWVYGHIQLTPEEAARYKNSPVVYNGDVGFFFEPNEHGVIKVCDEFPGFTRFKMHQPFGAKAPKRISVPRSHAKHPTDTIPDASDVSIRRAIATFMPQFKNKKMFNQAMCWCTDTADAALLICEHPEWKNFVLATGDSGHSFKLLPNIGKHVVELLEGTLADDLAHAWRWRPGSGDALKSRRSAPAKDLADMPGWNHDKPRANL
Consider B1, for which, in [5] (setting [10]), the “FV (U/mg) oxidase activity” value stood at 1.3 U/mg. Moreover, the “oxidizing activity to FV” value in data set [5] (setting [11]) was “showed oxidizing activity”. Moreover, in [6], the “oxidizing activity to FK” value is on record as “showed oxidizing activity”. In addition, in data set [7], the “VmaxKm^−1 for FVH as % of VmaxKm^−1 for FV” value is reported as 34%. Also, the “FVH (U/mg) oxidase activity” value in [7] (setting [10]) worked out at 0.11 U/mg. The “oxidizing activity to FVH” value in data set [7] (setting [11]) is listed as “showed oxidizing activity”. For the same molecule, in data set [8] (in words), the “capability of oxidizing fructosyl hexapeptide” value is “capable of oxidizing fructosyl hexapeptide”. For the same molecule, the “F6P (U/mg) oxidase activity” value in [8] (substrate concentration 5 mM, without Proteinase N) is reported as 1.3 × 10^−3 U/mg. In addition, the residual activity result in [9] was “about 75%”.
